# The RNAGym collection of RNA variant scans (doi:10.1073/pnas.2313332121)
# B1: TPR t1 (parent)
# chain: GACCAAUCUGCCCUCAGAGCUCGAGAACAUCUUCGGAUGCAGAGGAGGCAGGCUUCGGUGGCGCGAUAGCGCCAACGUCCUCAACCUCCAAUGCAUCCCACCACAUGAUGAUGCCUGAAGAGCCUUGGUUUUUUG
# Variants of: B1
# Assay: polymerase ribozyme fitness, log enrichment relative to wild type (log ratio); higher = more active; in vitro selection for triplet polymerase activity
# Method in brief: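 Mutant libraries were PCR-built and transcribed for each subunit of a heterodimeric triplet polymerase ribozyme and selected for one round in triplicate at −7 °C, frozen, before gel excision of extended constructs and streptavidin-bead capture. Input and output libraries were Illumina-sequenced, keeping genotypes with ≥10 input reads and ≥1 read per output. Fitness is a logarithmic ratio of genotype to wild-type enrichment, in base 2, using inverse-variance-weighted replicate averages.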
row,Variant,polymerase ribozyme fitness (log ratio)
1,GACCAAUCUGCCCUCAGAGCUCGAGAACAUCUUCGGAUGCAGAGGAGGCAGGCUUCGGUGGCGCGAUAGCGCCAACGUCCUCAUCCUCCUAUGCAUCCCACCACAUGAUGAUGCCUGAAGAGCCUUGGUUUUUUG [A84U A90U],-1.49
2,GACCAAUCUGCCCUCAGAGCUCGAGAACAUCUUCGGAUGCAGAGGAGGCAGGCUUCGGUGGCGCGAUAGCGCCAACGUCCUCAUCAUCCAAUGCAUCCCACCACAUGAUGAUGCCUGAAGAGCCGUGGUUUUUUG [A84U C86A U125G],-1.97
3,GACCAAUCUGCCCUCAGAGCUCGAGAACAUCUUCGGAUGCAGAGGAGGCAGGCUUCGGUGGCGCGAUAGCGCCAACGUCCUCAUCCUUCAAUACAUCCCACCACAUGAUGAUGCCUGAAGAGCCUUGAUUUUUUG [A84U C88U G93A G128A],-2
4,GACCAAUCUGCCCUCAGAGCUCGAGAACAUCUUCGGAUGCAGAGGAGGCAGGCUUCGGUGGCGCGAUAGCGCCAACGUCCUCAUCCUCCAAUGCAUCCCACCACAUGAUGAUGCGUGAAGAGCCUUGGUUUUUUG [A84U C115G],-3.83
5,GACCAAUCUGCCCUCAGAGCUCGAGAACAUCUUCGGAUGCAGAGGAGGCAGGCUUCGGUGGCGCGAUAGCGCCAACGUCCUCAUCCUCCAAUGCAUCCCACCACAUGAUGAUGCCUGAAGAGACUUGGUUUUUUG [A84U C123A],-0.143
6,GACCAAUCUGCCCUCAGAGCUCGAGAACAUCUUCGGAUGCAGAGGAGGCAGGCUUCGGUGGCGCGAUAGCGCCAACGUCCUCAUCCUCCAAUACAUCCCACCACAUGAUGAUGCCUGAAGAGCCUUGGUUUUUUG [A84U G93A],-1.11
7,GACCAAUCUGCCCUCAGAGCUCGAGAACAUCUUCGGAUGCAGAGGAGGCAGGCUUCGGUGGCGCGAUAGCGCCAACGUCCUCAUCCUCCAAUACAUCCCACCACAUGAUGAUGCGUGAAGAGCCUUGGUUUUUUG [A84U G93A C115G],-2.08
8,GACCAAUCUGCCCUCAGAGCUCGAGAACAUCUUCGGAUGCAGAGGAGGCAGGCUUCGGUGGCGCGAUAGCGCCAACGUCCUCAUCCUCCAAUUCAUCCCACCACAUGAUGAUGCCUGAAGAGCCUUGGUUUUUUG [A84U G93U],-1.44
9,GACCAAUCUGCCCUCAGAGCUCGAGAACAUCUUCGGAUGCAGAGGAGGCAGGCUUCGGUGGCGCGAUAGCGCCAACGUCCUCAUCCUCCAAUGCAUCCCACCACAUGAUCAUGCCUGAAGAGCCUUGGUCUUUUG [A84U G110C U130C],-4.16
10,GACCAAUCUGCCCUCAGAGCUCGAGAACAUCUUCGGAUGCAGAGGAGGCAGGCUUCGGUGGCGCGAUAGCGCCAACGUCCUCAUCCUCCAAUGCAUCCCACCACAUGAUUAUGCCUGAAGAGCCUUGGUUUUUUG [A84U G110U],-1.34
11,GACCAAUCUGCCCUCAGAGCUCGAGAACAUCUUCGGAUGCAGAGGAGGCAGGCUUCGGUGGCGCGAUAGCGCCAACGUCCUCAUCCUCCAAUGCAUCCCACCACAUGAUGACGCCUGAAGAGCCUUGGUUUUUUG [A84U U112C],1.2
12,GACCAAUCUGCCCUCAGAGCUCGAGAACAUCUUCGGAUGCAGAGGAGGCAGGCUUCGGUGGCGCGAUAGCGCCAACGUCCUCAAACUCCAAUGCCUCCCACCACAUGAUGAUGCCUGAAGAGCCUUGGUUUUUUG [C85A A95C],-2.61
13,GACCAAUCUGCCCUCAGAGCUCGAGAACAUCUUCGGAUGCAGAGGAGGCAGGCUUCGGUGGCGCGAUAGCGCCAACGUCCUCAAACUCCAAUGCAUCCCACCACAUGAUGAUGCCUGAAGCGCCUUGGUUUUUUG [C85A A121C],0.793
14,GACCAAUCUGCCCUCAGAGCUCGAGAACAUCUUCGGAUGCAGAGGAGGCAGGCUUCGGUGGCGCGAUAGCGCCAACGUCCUCAAACUCCAAUGCAUCCCACCACAUGAUGAUGCUUGAAGAGCCUUGGUUUUUUG [C85A C115U],-2.7
15,GACCAAUCUGCCCUCAGAGCUCGAGAACAUCUUCGGAUGCAGAGGAGGCAGGCUUCGGUGGCGCGAUAGCGCCAACGUCCUCAAACUCCAAUGCAUCCCACCACAUGAUGAUACCUGAAGCGCCUUGGUUUUUUG [C85A G113A A121C],-2.05
16,GACCAAUCUGCCCUCAGAGCUCGAGAACAUCUUCGGAUGCAGAGGAGGCAGGCUUCGGUGGCGCGAUAGCGCCAACGUCCUCAAACUCCAAUGCAUCCCACCACAUGAUGAUGCCUAAAGAGCCUUGGUUUUUUG [C85A G117A],-2.97
17,GACCAAUCUGCCCUCAGAGCUCGAGAACAUCUUCGGAUGCAGAGGAGGCAGGCUUCGGUGGCGCGAUAGCGCCAACGUCCUCAAACUCCAAUGCAUCCCACCACAUGAUGAUGCCUGAAGAACCUUGGUUUUUUG [C85A G122A],-1.14
18,GACCAAUCUGCCCUCAGAGCUCGAGAACAUCUUCGGAUGCAGAGGAGGCAGGCUUCGGUGGCGCGAUAGCGCCAACGUCCUCAAACUCCAAUGCAUCCCACCACAUGAUGAAGCUUGAAGAGCCUUGGUCUUUUG [C85A U112A C115U U130C],-2.28
19,GACCAAUCUGCCCUCAGAGCUCGAGAACAUCUUCGGAUGCAGAGGAGGCAGGCUUCGGUGGCGCGAUAGCGCCAACGUCCUCAAGCUCCAAUGCAUCCCACCACAUGAUGCUGCCUGAAGAGCCUUGGUUUUUUG [C85G A111C],-3.12
20,GACCAAUCUGCCCUCAGAGCUCGAGAACAUCUUCGGAUGCAGAGGAGGCAGGCUUCGGUGGCGCGAUAGCGCCAACGUCCUCAAGCUCCAAUGCAUCCCACCACAUGAUGAUGCCUGUAGAGCCUGGGUUUUUUG [C85G A118U U126G],-3.39
21,GACCAAUCUGCCCUCAGAGCUCGAGAACAUCUUCGGAUGCAGAGGAGGCAGGCUUCGGUGGCGCGAUAGCGCCAACGUCCUCAAGCUUCAAUGCAUCCCACCACAUGAUGAUGCCUGAAGAGCCUUGGUUUUUUG [C85G C88U],-0.339
